Patent US11484554B2, “Pancreatic cells for treating diabetes and methods of generating the same” (Seraxis, Inc., priority 2018, dated 2022)
Entries after “also recorded” stand apart in the source; their conditions may differ.

What was measured:
Type in all cases: cell-based, human
SR1423 cells [1] = test: Glucagon added to the culture media during differentiation
Description: A second batch of SR1423 cells were seeded at 6.3×10^4 as described above and allowed to grow for 18-24 hours. […]

[2] = test system: embryonic stem cell line BGO1V; test: Impact of KGF at earlier stages of differentiation, BGO1V
SR1423 cells [3] = test: Impact of KGF at earlier stages of differentiation, SR1423; settings: KGF at earlier stages of differentiation (early endoderm)
Description: Differentiation: A first batch of SR1423 cells were seeded at 2.3×10^4 cells/cm^2 and allowed to grow for 18-24 hours. Cells were then washed with dPBS (—Mg^2+/—Ca^2+) and medium was changed following a 28 day schedule comprised of 6 media formulation as follows: Days 1, 2, 3: DMEM/F-12 medium (Life Technologies #10565018), 0.2% HSA, 1XB27 supplement (Life Technologies #A1486701), 100 ng/ml Activin A and 1 uM Wortmannin; Days 4, 5, 6, 7: DMEM (Life Technologies #10567014), 0.2% HSA, 1XB27 supplement, 4 uM Retinoic Acid, 50 ng/ml KGF, 50 ng/ml Noggin, 0.25 uM Cyclopamine KAAD; Days 8, 10: DMEM, 0.2% HSA, 1XB27 supplement, 50 ng/ml KGF, 50 ng/ml Noggin, 50 ng/ml EGF; Days 12, 14: DMEM, 0.2% HSA, 1XB27 supplement, 50 ng/ml Noggin, 50 ng/ml EGF, 1 uM γ-secretase inhibitor XXI, 10 uM Alk5i II, 1 uM T3; Days 16, 18: DMEM, 0.2% HSA, 1XB27 supplement, 10 uM Alk5i II, 1 uM T3, 100 nM Retinoic Acid; Days 20, 22, 24, 26, 28: CMRL (Life Technologies #11530037), 0.2% HSA, 1× B27 supplement, 1× glutamax (Life Technologies # 35050061), 10 uM Alk5i II, 1 uM T3, 10 mM Nicotinamide, 50 ng/ml IGF-I, 10 ng/ml BMP4. For differentiations with the addition of a second stage employing KGF, medium on days 4, 5, 6 with DMEM, 0.2% BSA, 1XB27 supplement, and 50 ng/ml KGF was inserted into the schedule shifting the remaining stages three days later. […]

“glucagon: peptide hormone added to the sixth differentiation medium” was tested, and the “amount of cells that co-express insulin and glucagon” value (SR1423 cells [1]) was “reducing the amount of cells that co-express insulin and glucagon; also recorded: reduces the amount of cells that co-express insulin and glucagon”.

B1: KGF: keratinocyte growth factor used as differentiation factor in culture medium (protein, UniProt P21781 32-194, looked up)
Fibroblast growth factor 7: CNDMTPEQMATNVNCSSPERHTRSYDYMEGGDIRVRRLFCRTQWYLRIDKRGKVKGTQEMKNNYNIMEIRTVAVGIVAIKGVESEFYLAMNKEGKLYAKKECNEDCNFKELILENHYNTYASAKWTHNGGEMFVALNQKGIPVRGKKTKKEQKTAHFLPMAIT
In the case of B1, the “production of pancreatic and insulin-producing cells” value [2] is reported as “matching results” and the “production of pancreatic and insulin-producing cells” value (SR1423 cells [3]) is reported as “marked reduction”.
